Details of data set [1]: species or system Sprague Dawley rats. The settings on record: rat, in vivo, sc, 1 mg/kg. The procedure:
Infliximab, sold as a lyophilized powder with the appropriate salts (Hannah Pharmaceuticals), was resuspended to a concentration of 10 mg/mL with water. The Vitamin D3-PEG-NHS carrier was resuspended at a concentration of 10 mg/mL in DMSO. The Vitamin D3-PEG-NHS carrier and the infliximab were then mixed at a molar ratio of 5:1 and 10:1 carrier to infliximab. […] By using an NHS version of the carrier, more than one carrier can be attached to a therapeutic protein and this can be experimentally controlled by altering the molar ratio of carrier to target therapeutic in the reaction. In this example, a target distribution of 2-4 carriers was set as a desired parameter.
The dose was 1 mg/kg in all test groups with three rats per group. Serum samples were collected pre-dosing and at various times from 5 min to 48 hrs post injection. Serum samples were then analyzed by ELISA using an ELISA kit specific for determining the levels of infliximab in serum (Promonitor™, Progenika™). Pharmacokinetic parameters were determined using WinNonLin.

The conditions of data set [2]: 1 mg/kg, cited from earlier work.
For data set [3] the following is noted: FGF21 in its natural state; cited from earlier work.

Where two headings read alike, the source gives them in different places.

As to “infliximab: Monoclonal antibody that binds tumor necrosis factor alpha (TNF-α) [reference compound]”, in data set [1], the “serum concentration at 24 hr” value is listed as 2100 ng/mL and the “serum concentration at 48 hr” value is reported as 4800 ng/mL.

B1: FGF21: Fibroblast growth factor 21 in its natural state (SEQ ID:2), literature values (protein, listed as Homo sapiens)
chain: HPIPDSSPLLQFGGQVRQRYLYTDDAQQTEAHLEIREDGTVGGAADQSPESLLQLKALKPGVIQILGVKTSRFLCQRPDGALYGSLHFDPEACSFRELLLEDGYNVYQSEAHGLPLHLPGNKSPHRDPAPRGPARFLPLPGLPPALPEPPGILAPQPPDVGSSDPLSMVGPSQGRSPSYAS
Consider B1, for which the Cmax in data set [2] (intravenous route) is 1890 nM; in data set [2] (subcutaneous route), 73 nM. Also, the half-life in serum in data set [3] was 1.1 h.

As a reminder, the Cmax is the peak of the concentration-time curve.

These data come from US9289507B2, “Carriers for improved drug delivery” (Extend Biosciences, Inc., priority 2012, dated 2016).
